Experimental data as given in the supplement of paper PMC9170038.

Assays:
MS2 coat protein = test: apparent KD of MS2 coat protein; higher = weaker reporter binding; conditions: Eterna round: R107
Method: (§1)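 RNA-MaP round R107: designed RNA switches with theophylline, tryptophan, arginine or FMN aptamers are transcribed on-chip within common flanks. They are titrated with SNAP-549-labelled MS2 coat protein in RNA-MaP buffer (100 mM Tris pH 7.5, 80 mM KCl, 4 mM MgCl2), without ligand or with the indicated ligand. Median apparent KD per design.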

[1] = system: K4 kissing-loop RNA reporter; test: apparent KD of K4 kissing-loop reporter; higher = weaker reporter binding; conditions: Eterna round: R107;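 further: bound reporter read as fluorescence of individual clusters on recovered sequencing chips by microscopy, with normalized cluster intensities fitted with a binding model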
Method: as §1, with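 “a labelled K4 kissing-loop RNA reporter” for “SNAP-549-labelled MS2 coat protein”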

[2] = input ligand: theophylline 20 uM
[3] = input ligand: theophylline 2 mM
[4] = input ligand: tryptophan 2.4 mM

CCGACGAUGACCAAAGGUCAGGAGUGCGCACGAGGACCGGUACGGCCGCCACUCGAGGAGUGGGACAUGAGGAUCACCCAUGUAA [X-TryptA-ms2@65-1]
apparent KD of MS2 coat protein (MS2 coat protein; input ligand: arginine 13.2 mM): 0.0239 µM
apparent KD of MS2 coat protein (MS2 coat protein; input ligand: none): 0.0224 µM
apparent KD of MS2 coat protein (MS2 coat protein; [2]): 0.029 µM
apparent KD of MS2 coat protein (MS2 coat protein; [3]): 0.0206 µM
apparent KD of MS2 coat protein (MS2 coat protein; [4]): 0.0218 µM

CUGUACAUCUCGGCCGCCACUGCAACAUGUACACAUGGACAUGUACAUGAGGAUCACCCAUGUGGCAGGACCGGGAGGUGUGCAG [SSTryp B #28]
apparent KD of MS2 coat protein (MS2 coat protein; input ligand: arginine 13.2 mM): 0.0998 µM
apparent KD of MS2 coat protein (MS2 coat protein; [2]): 0.211 µM
apparent KD of MS2 coat protein (MS2 coat protein; [3]): 0.309 µM

ACAUGAGGAUCACCCAUGUAUUACCGGGAAGGAGCGCGUAAGGACGCAGGUAGGUCGCUCGGCGUCGUGCCGGAAGGCACGACGA [#1 Same State - Arginine A Attempt #22 (HarryS)]
apparent KD of MS2 coat protein (MS2 coat protein; input ligand: arginine 13.2 mM): 0.0179 µM
apparent KD of MS2 coat protein (MS2 coat protein; input ligand: none): 0.0136 µM
apparent KD of MS2 coat protein (MS2 coat protein; [2]): 0.0498 µM
apparent KD of MS2 coat protein (MS2 coat protein; [3]): 0.0156 µM
apparent KD of MS2 coat protein (MS2 coat protein; [4]): 0.0138 µM

GCUACAUGAGGAUCACCCAUGUGUACUGAAGGAGCGGCGGAAACGCCAGGUAGGUCGCAGUAUGUGGCUCUGGGCACGAGAUGGC [SSAA NP+V+V2 #1]
apparent KD of MS2 coat protein (MS2 coat protein; input ligand: arginine 13.2 mM): 0.0201 µM
apparent KD of MS2 coat protein (MS2 coat protein; input ligand: none): 0.0336 µM
apparent KD of MS2 coat protein (MS2 coat protein; [2]): 0.0394 µM
apparent KD of MS2 coat protein (MS2 coat protein; [3]): 0.0359 µM
apparent KD of MS2 coat protein (MS2 coat protein; [4]): 0.0337 µM

GGUGUAUCCAUCGAUACCAGCCACCACCGAUAGACCACAUGAGGAUCACCCAUGUUGGGUGGCCCUUGGCAGCGGUGGCUGUGCC [Same State - Theophylline B Attempt #3 (HarryS)]
apparent KD of MS2 coat protein (MS2 coat protein; input ligand: arginine 13.2 mM): 0.0799 µM
apparent KD of MS2 coat protein (MS2 coat protein; [2]): 0.592 µM
apparent KD of MS2 coat protein (MS2 coat protein; [4]): 0.353 µM

UCACUCCUGAUGGAUACCAGUUACUAACGCAACAUGAGGAUCACCCAUGUGAACACUCAGAACCCUUGGCAGCCAGGAGAACGAA [theeternabot_sameState_MS2_Theo_B_30]
apparent KD of MS2 coat protein (MS2 coat protein; input ligand: arginine 13.2 mM): 0.0428 µM
apparent KD of MS2 coat protein (MS2 coat protein; [2]): 0.0602 µM
apparent KD of MS2 coat protein (MS2 coat protein; [4]): 0.0538 µM

UAUAACAUGAGGAUCACCCAUGUAAGUGAUACCAGAUAAAUAAUAGUCCCUUGGCAGCAUAUUGGGAAAGUGUAUAAUAUAUAUU [Same State - Theophylline A (Freestyle 2)]
apparent KD of MS2 coat protein (MS2 coat protein; input ligand: arginine 13.2 mM): 0.0508 µM
apparent KD of MS2 coat protein (MS2 coat protein; [2]): 0.0661 µM
apparent KD of MS2 coat protein (MS2 coat protein; [4]): 0.0481 µM

CAAGAAGUAACUGAUACCAGUGUACUGACAUGAGGAUCACCCAUGUUGGGUUUUGUUGUACACCCUUGGCAGCAGAAUCUUCUUG [AstrosExyTheB#22]
apparent KD of MS2 coat protein (MS2 coat protein; input ligand: arginine 13.2 mM): 0.0469 µM
apparent KD of MS2 coat protein (MS2 coat protein; [2]): 0.0748 µM
apparent KD of MS2 coat protein (MS2 coat protein; [4]): 0.0581 µM

ACCUGUACGAAAAGUGCAGGACAUGAAUAACGAGGACCGGUACGGCCGCCACUCGGGUAAUAACCUGAGGAUCACCCGGGUCAUG [TrypAS 6 #AlternativeMS2 #Zipper #StaticStem]
apparent KD of MS2 coat protein (MS2 coat protein; input ligand: arginine 13.2 mM): 0.111 µM
apparent KD of MS2 coat protein (MS2 coat protein; input ligand: none): 0.218 µM
apparent KD of MS2 coat protein (MS2 coat protein; [2]): 0.211 µM
apparent KD of MS2 coat protein (MS2 coat protein; [3]): 0.249 µM
apparent KD of MS2 coat protein (MS2 coat protein; [4]): 0.0275 µM

UGUAUGGACUGAAGGAGCGCCUCAAAAUAGCAUGAGGAUCACCCAUGCAAGGCGAAAGCCGGGCAGGUAGGUCGCAGUCCAUACU [ArgBX 3]
apparent KD of MS2 coat protein (MS2 coat protein; input ligand: arginine 13.2 mM): 0.0135 µM
apparent KD of MS2 coat protein (MS2 coat protein; [2]): 0.014 µM
apparent KD of MS2 coat protein (MS2 coat protein; [3]): 0.0145 µM
apparent KD of MS2 coat protein (MS2 coat protein; [4]): 0.013 µM

UCGUUUGAGUCGGCCGCCACUGGUCUCAUGGUCAACAUGAGGAUCACCCAUGUAUCUUAGUUAAACAGGACCGGGACUCGAUCGA [#17 Exclusion Tryptophan B]
apparent KD of MS2 coat protein (MS2 coat protein; input ligand: arginine 13.2 mM): 0.0625 µM
apparent KD of MS2 coat protein (MS2 coat protein; input ligand: none): 0.0505 µM
apparent KD of MS2 coat protein (MS2 coat protein; [2]): 0.0677 µM
apparent KD of MS2 coat protein (MS2 coat protein; [3]): 0.0343 µM
apparent KD of MS2 coat protein (MS2 coat protein; [4]): 0.0206 µM

AAGCUGCCAAGAAGGUGAUCCAAAUGUGAUACCAGCUAGGAAACUAGCCCUUGGCAGCACAUGAGGAUCACCCAUGUAAUAAUAA [(T)'-(M)'-(T1)-(T2)-(M1)-(M2)_Design1_2/19/17]
apparent KD of MS2 coat protein (MS2 coat protein; input ligand: arginine 13.2 mM): 0.0377 µM
apparent KD of MS2 coat protein (MS2 coat protein; [2]): 0.191 µM
apparent KD of MS2 coat protein (MS2 coat protein; [4]): 0.0483 µM

GGACUAACCAGAAGGAGCGGCACGCAGAAACUGCAAAUUCCUCCGCACGAGGAUCACCCGUGUCAGGUAGGUCGCUGGUUAGUCG [ArgBX 28]
apparent KD of MS2 coat protein (MS2 coat protein; input ligand: arginine 13.2 mM): 0.0208 µM
apparent KD of MS2 coat protein (MS2 coat protein; input ligand: none): 0.0197 µM
apparent KD of MS2 coat protein (MS2 coat protein; [2]): 0.0259 µM
apparent KD of MS2 coat protein (MS2 coat protein; [3]): 0.024 µM
apparent KD of MS2 coat protein (MS2 coat protein; [4]): 0.0226 µM

UUAGAUUGCCGAAGGAGCGAGAUAGCCUACAUGAGGAUCACCCAUGUAGAAACGGGCUGAUCUCAGGUAGGUCGCGGCAGGUAGC [Soaquatan]
apparent KD of MS2 coat protein (MS2 coat protein; input ligand: arginine 13.2 mM): 0.0846 µM
apparent KD of MS2 coat protein (MS2 coat protein; input ligand: none): 0.0262 µM
apparent KD of MS2 coat protein (MS2 coat protein; [2]): 0.0274 µM
apparent KD of MS2 coat protein (MS2 coat protein; [3]): 0.0258 µM
apparent KD of MS2 coat protein (MS2 coat protein; [4]): 0.0249 µM

GACGCAUGAGUUGUAAAAGCUCAUGGGUCGCGAGGACCGGUACGGCCGCCACUCGGCUGUACAUGAGGAUCACCCAUGUCAGGGU [#1 Same State - Tryptophan A Attempt #28 (HarryS)]
apparent KD of MS2 coat protein (MS2 coat protein; input ligand: arginine 13.2 mM): 0.154 µM
apparent KD of MS2 coat protein (MS2 coat protein; [2]): 0.434 µM
apparent KD of MS2 coat protein (MS2 coat protein; [3]): 0.886 µM

AGAUGUAGCGGAAGGAGCGUCAUGAGGAUCACCCAUGGCUCCCGUUGUGGGAGUUCCUUAGGUCAGGUAGGUCGCCGUUACGUCA [Omei Arg B SS B v6]
apparent KD of MS2 coat protein (MS2 coat protein; input ligand: arginine 13.2 mM): 0.0797 µM
apparent KD of MS2 coat protein (MS2 coat protein; input ligand: none): 0.359 µM
apparent KD of MS2 coat protein (MS2 coat protein; [2]): 0.187 µM
apparent KD of MS2 coat protein (MS2 coat protein; [3]): 0.254 µM
apparent KD of MS2 coat protein (MS2 coat protein; [4]): 0.137 µM

GACCGGUUAUAGUGCGAUUGUCUUGUGGAAGGAGCGCAGAGGACUGCAGGUAGGUCGCCACAUGAGGAUCACCCAUGUCAGGAUA [Tirevete]
apparent KD of MS2 coat protein (MS2 coat protein; input ligand: arginine 13.2 mM): 0.0338 µM
apparent KD of MS2 coat protein (MS2 coat protein; input ligand: none): 0.0237 µM
apparent KD of MS2 coat protein (MS2 coat protein; [2]): 0.0334 µM
apparent KD of MS2 coat protein (MS2 coat protein; [3]): 0.0439 µM
apparent KD of MS2 coat protein (MS2 coat protein; [4]): 0.0223 µM

UAGUAGCUCUCGGCCGCCACUCCUCAGUGAUGUUGAGAUAUUAAGAGCCAAUUGGCUCAUAUAAAGAGGACCGGGAGAGCUACAU [AK4.2 SS Tryptophan B]
apparent KD of K4 kissing-loop reporter ([1]; input ligand: FMN 200 uM): 0.355 µM
apparent KD of K4 kissing-loop reporter ([1]; input ligand: arginine 13.2 mM): 0.339 µM
apparent KD of K4 kissing-loop reporter ([1]; input ligand: none): 0.365 µM
apparent KD of K4 kissing-loop reporter [1, 2]: 0.35 µM
apparent KD of K4 kissing-loop reporter [1, 4]: 0.126 µM

GAUUGUGAUGGAAACAUCGCAAUCUCUGAAGGAGCGCGUGAAAACGCAGGUAGGUCGCAGGACGACUAUGACAGUGAUGUUGUCG [Ex Arginine A K4 3]
apparent KD of K4 kissing-loop reporter ([1]; input ligand: FMN 200 uM): 0.189 µM
apparent KD of K4 kissing-loop reporter ([1]; input ligand: arginine 13.2 mM): 0.216 µM
apparent KD of K4 kissing-loop reporter ([1]; input ligand: none): 0.19 µM
apparent KD of K4 kissing-loop reporter [1, 2]: 0.207 µM
apparent KD of K4 kissing-loop reporter [1, 4]: 0.189 µM

ACCCGGGCCCGAAAGGGCCCGGGAAGAGAUACCAGCAGCGAAAGCUGCCCUUGGCAGCUCACUUAGUGAUGUUGAGAAUAGGGCG [#21 K4 Theophylline A Same State]
apparent KD of K4 kissing-loop reporter ([1]; input ligand: FMN 200 uM): 0.657 µM
apparent KD of K4 kissing-loop reporter ([1]; input ligand: arginine 13.2 mM): 0.221 µM
apparent KD of K4 kissing-loop reporter ([1]; input ligand: none): 0.554 µM
apparent KD of K4 kissing-loop reporter [1, 2]: 0.299 µM
apparent KD of K4 kissing-loop reporter [1, 4]: 0.225 µM

UGACUGGACUGAAGGAGCGCGAAACUCCUAGUGAUGUUAGGACAACGAGACAAAGUCUCGACGCAGGUAGGUCGCAGUCUAGUCU
apparent KD of K4 kissing-loop reporter ([1]; input ligand: FMN 200 uM): 0.148 µM
apparent KD of K4 kissing-loop reporter ([1]; input ligand: arginine 13.2 mM): 0.111 µM
apparent KD of K4 kissing-loop reporter ([1]; input ligand: none): 0.131 µM
apparent KD of K4 kissing-loop reporter [1, 2]: 0.144 µM
apparent KD of K4 kissing-loop reporter [1, 4]: 0.132 µM
